Laboratory results: a protein production outcome set (Wang et al. 2014)

experiment: label from the status in PepcDB records
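Also: failed if final PepcDB status was selected cloned or expressed and not failed if soluble or beyond.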

Sequence | protein production
MGIHLFWDSRVPVGLSRPVSEELSAVLEMPVSRIDDGIFPLEGFDPVRNQYDAVKVLLKLDMFRRRMPQIFKPADMDLEFYNKFNHLHEKILLVTPGDLYEPLADFVFGLAYPKLGVAIVSPHRLQNEFYGKYADDSALIDRIVKEGAHEIGHLFGLGHCDNPGCIMYCPRNLDELDRKRKYFCGKCRVQLNGDTLEDDLFSLEHHHHHH | not failed
MGIIAWIVFGFVIGLIARAVVPGKQSLGFVMTTLLGIAGSLIGGLVASAFAGTSGTTFQTAGFIGSLVGAIVLLVIAGMVTTPRRRTV | failed
MGIMPRKVLAIKNFKERFDLLPKLKGVIAEKQPDILVVVGNILKNEALEKEYERAHLARREPNRKVIHENEHYIIETLDKFFREIGELGVKTFVVPGKNDAPLKIFLRAAYEAETAYPNIRVLHEGFAGWRGEFEVIGFGGLLTEHEFEEDFVLKYPRWYVEYILKFVNELKPRRLVTIFYTPPIGEFVDRTPEDPKHHGSAVVNTIIKSLNPEVAIVGHVGKGHELVGNTIVVNPGEFEEGRYAFLDLTQHKIKLEQFS | not failed
MGIRHIALFRWNDTVTPDQVEQVITALSKLPAAIPELKNYAFGADLGLAAGNYDFAVVADLDGEDGFRAYQDHPDHRAALAIIAPMLADRVAVQFAL | not failed
MGIRVKRRQHQHLLESLVHSTAKQQGDFTKTAELATELLCQNLAVSLVSIWIFSADQGTQSLVAQFGSMALQDTYRPSLLHTVPRYLNELKNYRHIDAGNTLIDPRLTELVDSYFIPRQILSSLDVGIRINGHLEGVLCIERAQVTHHWHDSEIHLACQMADQLALTLATKHAYDKEERLSLFRCAIEQSRQMSMLEHHHHHH | not failed
MGKEITENIIDVEFKCNHFKMNGYIGNNNIYRSNKNLQHIYINKRFVKSKIIIDAITESYKSIIPIGKHAVCFLNIEVDPSCIDVNIHPNKLEIKFEKEQEVYIELRDFLKVKLIHSNLIGLEHHHHHH | failed
MGKENLYVVLPSYNEEANIGKLINEWNVQFKDLEARGIKLEIIIVNDGSTDNTLAVAEAFSKHNDNVVVIDHGVNKGLGEGLNTGINYVLSQKQKGYMCLMDGDMTHEPKYIFSMLDKLQEEKLDCVIASRYRRGAKVEGLSLFRKFLSFGARVLYTIRLGIPNVRDYTCGYRLYKTSVLEKLHKVYGKRIVKETGFACMMELIVKVSKENFKIGEVPFVLKYQLKGGESKMKVGKTIKRSLLLLRVYKLEHHHHHH | not failed
MGKIFCIVQARMGSERLQGKVIKPILKKPMVIYTLDRLKKSKYIDKIVLATSSMERETPLVESCEEYGYDVFKGSEANVLKRYEQAAEKYGANIEDAVIRVTGDCPLIDPIIVDNVVTKFLSSDYDYVRLDVPNTFVRGFDVEIFSMKALKTVNSLINGGKIPKEEADMYKEHVTLYMYKHPNEFKVGYVKGDEFYSKDYRLCVDTKEDFELVKNIYEHFNDEFVSSKNVINYLDRNSEIAQINNDIKQKEVLEHHHHHH | not failed
MGKKNPNARHTDAATPLTTDDSNSSSVSRRESATESKSASESESSPPRSNTKQSRTHKNVKASGKATVSSSSDSDQAVANSSANDEEKEPVCKIRIVPLEKLLASPKTKERPSRGSQQKNVTINDSSDEEPLKGSKLVLPARKSRNKNAS | failed
MGKKYEIFLNENEHSLITPKVSFKEILRYYYLYPKNAIPSFKLPFFKPDLSGFSTPHITWLGHSSLFISFKEYKILIDPIFNTHASPISFINKAFKNAPVYNINDFNEIFAVIITHSHFDHLDAKSVKALKDKAKFFITPLKVGNYLKSYGVSEKKIIELDWWSGIEFGDLKIMATPAQHSSSRGDGKNKTLWASFVMEFLSVDKRVFFSADGGYFTHFKKIGEYFGSFDLACLESGQFNIAWPYSHSFPEQILKEAKDLNAKAVMPIHWGRFLAGTHAWNEVVKFLYENLDLPLITPKMGEAYEVGAKLEHHHHHH | not failed
MGKRFSSFQAAQIRIARPTGQLDEIIRFYEEGLCLKRIGEFSQHNGYDGVMFGLPHADYHLEFTQYEGGSTAPVPHPDSLLVFYVPNAVELAAITSKLKHMGYQEVESENPYWSNGGVTIEDPDGWRIVFMNSKGISGK | not failed
MGKRSSNDLPPVEASMARHIIHFTGPINSSTCGNLITTCSRALQQGAELLQLNIATMGGECSYGFTLYNFLRALPVEVHTHNLGTVESMGNILFLAGERRTACSFSKFLFHPFHWTLHGSVDHSRMSEYAMSLDYDLRLYAQIVAERTKGAAEVLDVPRYLMAYPRILAPREALENGMIHEIDEMPIASDATQWSVHA | failed
MGKSDFLSPKAIANRIKSKGLQKLRWYCQMCQKQCRDENGFKCHCMSESHQRQLLLASENPQQFMDYFSEEFRNDFLELLRRRFGTKRVHNNIVYNEYISHREHIHMNATQWETLTDFTKWLGREGLCKVDETPKGWYIQYIDRDPETIRRQLELEKKKKQDLDDEEKTAKFIEEQVRRGLEGKEQETPVFTELS | not failed
MGKTAIKSTAKVLSFVVQKHWATRLHYDFRLELEGTMKSWAVPKGPSFDPNDKRMAVHVEDHPISYNSFEGEIPSGQYGAGKVIIWDKGTWIPLEDPHKGYRDGKLKFELRGLKLKGHWALVRMRKEENKKQEPWLLIKEKDEYVRSSREYSVVDEMPDSVAELEHHHHHH | not failed
MGKTMITRALWSYAHRYRPQERWGILKPMQSGTAVEIGDGDYYCQTLPLEQTPREVCPLSFAAPLAPPIAAQLENRRIDLAPLWQTYQQLQERFDYLLVEGIGGLGSPITWEWTVADLAAAWKLPIVLVATVRLGAIAQIVANIALARQYQLVIRGLILNCVSPCSDAEIEQWTPPVFLSRFTQVPVLGVLPYGQHSNEQLAAMVAEWPLDLLWR | failed
MGKVIGIDLGTTNSCASVLEGGKPIVITNTEGGRTTPSIVGFTKGSQRLVGQLAKRQSVTNAENTVYSIKRFIGRRWDDTVEERSRVPYNCVKGRDDTVSVSIRGQSYTPQEISAMILQKLKADSEAFLGEPVTQAVITVPAYFTDAQRQATKDAGTIAGLEVLRIINEPTAAALAYGLDKQETEELILVFDLGGGTFDVSLLQLGNGVFEVLSTSGNNHLGGDDFDNCVVQWMAESFKQKENIDLSTDKMAIQRLREAAEKAKIELSSMLNTTINLPFITADESGPKHLEMELARSQFEELTKQLLEDTRVPLTQALDDGEIRASDVHRVILVGGSTRIPAIQRVIQEFFPDSQLERSVNPDEAVALGAAIQAGVIGGEVEDVLLLDVTPLSLGLETLGEVTTKIIERNTTIPTSRSEVFSTAVDGQTSVEIHVIQGERAMARDNKSLGKFLLAGIPPAPRGMPQIEVSFEIDVNGILKVSAQDQGTGKEQSIVISHTGGLSGGEIEKMRQEAQQYAAQDQLRLRMMELQNQADSLFHTYETTLQESGELVREELKSSGKQKKDQLAIALRTPNTPVEKLQTLVEEFRQIILLIGTEVYQQGKGAASNEFANFVQGTSSGTSQMIESLETNLNPIQASSGITMTPGTMINGTVNPGGMDYVETAPVYGLDDGEEFDFDADETVYSDYEAID | failed
MGLDVDWALDWLKLSAKAMAEHRVELIELDRPIGDSDHGENMDRGFQAVLQKLDETPPETPGAALKAAAMALMSKVGGAAGPLYGTAYLRAATSLGDAGDIDAEALAAALAAARDGVVARGKAELGDKTMIDAWTPAVEAAQKAAASGADPVAVLEAAAEAAETGAMATDPLVARKGRASYLGERSAGHRDPGAASTALLLRAAAAAAAGSTADKGADAV | failed
MGLEEELLRIAKKLEKMVSRKKTEGALDLLKKLNSCQMSIQLLQTTRIGVAVNGVRKHCSDKEVVSLAKVLIKNWKRLLDSPRTTKGERE | not failed
MGLLDHLWDDTVAGPRPENGLGKLRKHHTFSFRPSSGNDQSEAGSARSYGEDSLPEEAVKVTRSIMIIKPPGYQGSSAPASPAGSTPPLSPFSPPLSPFSANAGGKEPFRFRRRSTSDAFEKAAGGSETGPRSSPPTYGM | failed
MGLLSDPVRRRALARLVLRLNAPLCVLSYVAGIAWFLALVFPPLTQRTYMSENAMGSTMVEEQFAGGDRARAFARDFAAHRKKSGALPVAWLERTMRSVGLEVYTQSFSRKLPFPDETHERYMVSGTNVYGILRAPRAASTESLVLTVPCGSDSTNSQAVGLLLALAAHFRGQIYWAKDIVFLVTEHDLLGTEAWLEAYHDVNVTGMQSSPLQGRAGAIQAAVALELSSDVVTSLDVAVEGLNGQLPNLDLLNLFQTFCQKGGLLCTLQGKLQPEDWTSLDGPLQGLQTLLLMVLRQASGRPHGSHGLFLRYRVEALTLRGINSFRQYKYDLVAVGKALEGMFRKLNHLLERLHQSFFLYLLPGLSRFVSIGLYMPAVGFLLLVLGLKALELWMQLHEAGMGLEEPGGAPGPSVPLPPSQGVGLASLVAPLLISQAMGLALYVLPVLGQHVATQHFPVAEAEAVVLTLLAIYAAGLALPHNTHRVVSTQAPDRGWMALKLVALIYLALQLGCIALTNFSLGFLLATTMVPTAALAKPHGPRTLYAALLVLTSPAATLLGSLFLWRELQEAPLSLAEGWQLFLAALAQGVLEHHTYGALLFPLLSLGLYPCWLLFWNVLFWK | failed
MGLMKFQLFIQPKLDVLQGNIVEYEILLRDDSAVPRFPLSELEAVLADEELYLAFSEWFSEAFLDVLKKYPNDRFAINIAPQQLFYIETLHWLDKLKSESHRITVEMTEDIFDVPGHKRHLNANDKNAFILNKIKVIHGLGYHIAIDDVSCGLNSLERVMSYLPYIIEIKFSLIHFKNIPLEDLLLFIKAWANFAQKNKLDFVVEGIETKETMTLLESHGVSIFQGYLVNKPFPV | not failed
MGLNSKAEVAKSRKNAAEAEQKDRQTREKEEQYWREAEGPKSKAVKKREEEAEKKAETAAKKLEAKRLAEQEEKELEKALKKPDKKANRVTVPVPKVTEAELIRRREEDQVALAKKAEDSKKKQTRMAGEDEYEKMVLVTNTNRDDSLIEAHTVDEALARITVSDNLPVDRHPEKRLKASFKAYEEVELPRLKSEKPGLTHTQYKDLIWKMWKKSPDNPLNQAAAAAANE | failed
MGLSNKFKSFFFLDEEEEYYEEEVAREPEPMQKKTKKEKPSKNRFYAVEEEDAKVVSMQGAQFSSRMVLAEPRVYAEAQELADYLKDYKTVVVNLQRISHDQATRIVDFLSGTVYALGGDIQRVGNNIFLTPDNVEVNGSISEMLDEQNFMLEHHHHHH | failed
MGMTVVIILVFSFFVAIVTAETSPYIIHMDLSAKPLPFSDHRSWFSTTLTSVITNRKPKIIYAYTDSVHGFSAVLTNSELQRLKHKPGYVSFTKDLPVKLHTTFSPKFIGLNSTSGTWPVSNYGAGIVIGIIDTGIWPDSPSFHDDGVGSVPSKWKGACEFNSSSLCNKKLIGAKVFNKGLFANNPDLRETKIGQYSSPYDTIGHGTHVAAIAAGNHVKNASYFSYAQGTASGIAPHAHLAIYKAAWEEGIYSSDVIAAIDQAIRDGVHVISLSLGLSFEDDDDNDGFGLENDPIAVASFAAIQKGVFVVTSGGNDGPYYWSLINGAPWIMTVGAGTIGRQFQGTLTFGNRVSFSFPSLFPGEFPSVQFPVTYIESGSVENKTLANRIVVCNENINIGSKLHQIRSTGAAAVVLITDKLLEEQDTIKFQFPVAFIGSKHRETIESYASSNKNNATAKLEFRKTVIGTKPAPEVGTYSSRGPFTSFPQILKPDILAPGTLILSAWPSVEQITGTRALPLFSGFNLLTGTSMAAPHVAGVAALIKQVHPNWSPSAIKSAIMTTALTLDNPLAVGAGHVSTNKVLNPGLIYDTTPQDFINFLCHEAKQSRKLINIITRSNISDACKKPSPYLNYPSIIAYFTSDQSSPKIFKRTLTNVGEAKRSYIVRVRGLKGLNVVVEPKKLMFSEKNEKLSYTVRLESPRGLQENVVYGLVSWVDEDEAEFEVSCSVVATSLVQES | failed
MGNDNVTIKLEHRVKTSADLSDYVYKYERAYTDALNNGDDIKEASESTKKELNQLIDRTDLTYSDGMYDKETGIAAIAVKDKNTGETYIAYAGTNKDADGATDFISDANIGANNSAYLKRLGDKATSFYDRVQSNGDNITVTTGHSYGDFLASRVAIELIPFFINFRKVNDSFHFCY | failed
